This is an account of results in article PMC12784962, “https://orcid.org/0000-0002-3633-7823 Baral Joydeep Department of Bioscience and Biotechnology, Indian Institute of Technology Kharagpur, West Midnapore 721302, West Bengal, India”.

Data set [1] concerns the target T1, mKu WT (Mycobacterium tuberculosis, UniProt P9WKD9 1-273).
T1 sequence: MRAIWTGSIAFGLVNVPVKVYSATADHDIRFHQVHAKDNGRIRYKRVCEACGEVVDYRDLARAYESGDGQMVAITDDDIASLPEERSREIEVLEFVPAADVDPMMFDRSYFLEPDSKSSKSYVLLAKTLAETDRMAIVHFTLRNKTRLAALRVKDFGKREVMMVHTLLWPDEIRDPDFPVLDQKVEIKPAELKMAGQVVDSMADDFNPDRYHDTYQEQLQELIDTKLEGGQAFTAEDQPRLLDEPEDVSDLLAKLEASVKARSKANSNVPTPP
Briefly: FRET; 250 nM DNA, 0-305 nM mKu; saturating synapsis signal; EMSA: 25 mM Tris-Cl pH 7.5, 100 mM NaCl, 30 mM KCl, 0.1 mM EDTA, 0.05% Triton X-100, BSA, 2% glycerol, 2 mM DTT, 25 C, 30 min; FRET: 10 mM PBS pH 7.4, 25 C; cryo-EM: 4 C, 30 min. The conditions noted are these: protein: recombinant; pET16b); chain copies: 2; label: S4: 5'-Cy5, 3'-Cy3; complement (S5): 5'-Cy3, 3'-Cy5; blunt. In general terms: Mobility shift assays separate free from complexed probe on a gel.

Data set [2] deals with T1, mKu WT. Kind of data set: cryo-EM; 5 uM mKu dimer and 5 uM DNA; supercomplex; EMSA: 25 mM Tris-Cl pH 7.5, 100 mM NaCl, 30 mM KCl, 0.1 mM EDTA, 0.05% Triton X-100, BSA, 2% glycerol, 2 mM DTT, 25 C, 30 min; FRET: 10 mM PBS pH 7.4, 25 C; cryo-EM: 4 C, 30 min. The conditions noted are these: protein: recombinant; pET16b); chain copies: 2; hairpin at one end, other end blunt.

B1: 50-bp Cy3/Cy5 FRET dsDNA (dsDNA)
DNA 1: CCACACTGTCGCCGCCGACGTCTGTGATATGGCGTTGTTGCGCCGCCGAC
DNA 2: GTCGGCGGCGCAACAACGCCATATCACAGACGTCGGCGGCGACAGTGTGG
For B1, in the data set with mKu WT [1], the binding result was “binds”.

B2: shDNA (21-mer/34-mer hairpin) (structured_DNA)
DNA 1: GTTTTTAGTTTATTGGGCGCG
DNA 2: CGCGCCCAGCTTTCCCAGCTAATAAACTAAAAAC
Take B2: the binding result with mKu WT [2] was “binds”.
